B1: E4 ubiquitin-protein ligase UFD2 (Saccharomyces cerevisiae), P54860 (parent)
chain: MTAIEDILQITTDPSDTRGYSLLKSEEVPQGSTLGVDFIDTLLLYQLTENEKLDKPFEYLNDCFRRNQQQKRITKNKPNAESLHSTFQEIDRLVIGYGVVALQIENFCMNGAFINYITGIVSNVNSYTDFLSQIIQRAILEGTALDLLNAVFPTLLEYCNKHVSHFDLNESVIYNNVLTIFELFVTFKPIAEIFTKIDGFFADYSCKPQDFERKTILGPILSLSPIEAAVAIRNYGDNLLRSKQQTAMIHESLQAEHKVVIDRLFFIVDKLVRGSLNSRTDMISYFAHIANKNHLRRADHPPFKELSSNGFMSNITLLLVRFSQPFLDISYKKIDKIDANYFNNPSLFIDLSGETRLNSDFKEADAFYDKNRKTADSKPNFISDCFFLTLTYLHYGLGGTLSFEEKMGSEIKALKEEIEKVKKIAANHDVFARFITAQLSKMEKALKTTESLRFALQGFFAHRSLQLEVFDFICGASTFLIRVVDPEHEFPFKQIKLPLIPDQIGVENVDNADFLRAHAPVPFKYYPEFVVEGPVNYSLYISKYQTSPIFRNPRLGSFVEFTTMVLRCPELVSNPHLKGKLVQLLSVGAMPLTDNSPGFMMDIFEHDELVNKNLLYALLDFYVIVEKTGSSSQFYDKFNSRYSISIILEELYYKIPSYKNQLIWQSQNNADFFVRFVARMLNDLTFLLDEGLSNLAEVHNIQNELDNRARGAPPTREEEDKELQTRLASASRQAKSSCGLADKSMKLFEIYSKDIPAAFVTPEIVYRLASMLNYNLESLVGPKCGELKVKDPQSYSFNPKDLLKALTTVYINLSEQSEFISAVAKDERSFNRNLFVRAVDILGRKTGLASPEFIEKLLNFANKAEEQRKADEEEDLEYGDVPDEFLDPLMYTIMKDPVILPASKMNIDRSTIKAHLLSDSTDPFNRMPLKLEDVTPNEELRQKILCFKKQKKEEAKHKASE

Variants of: B1
Settings: with cdc48_yeast CDC48, P25694
Sequence of cdc48_yeast CDC48, P25694 (P25694 whole entry): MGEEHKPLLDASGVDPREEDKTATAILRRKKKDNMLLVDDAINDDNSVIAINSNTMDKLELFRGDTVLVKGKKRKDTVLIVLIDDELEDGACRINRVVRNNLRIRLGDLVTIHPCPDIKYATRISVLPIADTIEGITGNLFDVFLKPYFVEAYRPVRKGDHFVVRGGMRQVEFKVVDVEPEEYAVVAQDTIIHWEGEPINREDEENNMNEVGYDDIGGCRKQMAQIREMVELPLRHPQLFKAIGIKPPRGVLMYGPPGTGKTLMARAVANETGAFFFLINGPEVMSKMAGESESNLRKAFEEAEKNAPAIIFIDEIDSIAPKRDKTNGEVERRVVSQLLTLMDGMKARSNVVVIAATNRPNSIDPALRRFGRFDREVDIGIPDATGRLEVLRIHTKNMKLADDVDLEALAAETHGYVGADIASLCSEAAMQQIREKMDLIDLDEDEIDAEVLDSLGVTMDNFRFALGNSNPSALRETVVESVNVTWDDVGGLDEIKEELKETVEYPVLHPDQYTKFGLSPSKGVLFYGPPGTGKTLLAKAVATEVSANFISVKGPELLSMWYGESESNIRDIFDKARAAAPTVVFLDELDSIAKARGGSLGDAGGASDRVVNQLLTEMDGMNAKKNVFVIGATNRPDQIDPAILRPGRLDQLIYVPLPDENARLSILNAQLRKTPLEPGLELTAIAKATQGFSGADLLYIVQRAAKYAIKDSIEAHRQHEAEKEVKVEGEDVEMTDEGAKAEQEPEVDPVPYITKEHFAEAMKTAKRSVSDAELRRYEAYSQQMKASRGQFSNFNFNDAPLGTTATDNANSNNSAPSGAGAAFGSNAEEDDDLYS

Variant | effect of a mutation on the interaction
C385Y | disrupting interaction strength
G274D | disrupting interaction strength
